Consider six molecules from US20260207704A1, “STAPLED PEPTIDES AND METHODS THEREOF” (priority 2022, published 2026).

For orientation: IC50 means the concentration needed to halve the response being measured.

One data set addresses T1, beta-catenin/TCF4 (Homo sapiens, UniProt P35222).
T1 construct: expressed in transfected cells; host or cells: HEK293 cells
T1 sequence (P35222 1-781): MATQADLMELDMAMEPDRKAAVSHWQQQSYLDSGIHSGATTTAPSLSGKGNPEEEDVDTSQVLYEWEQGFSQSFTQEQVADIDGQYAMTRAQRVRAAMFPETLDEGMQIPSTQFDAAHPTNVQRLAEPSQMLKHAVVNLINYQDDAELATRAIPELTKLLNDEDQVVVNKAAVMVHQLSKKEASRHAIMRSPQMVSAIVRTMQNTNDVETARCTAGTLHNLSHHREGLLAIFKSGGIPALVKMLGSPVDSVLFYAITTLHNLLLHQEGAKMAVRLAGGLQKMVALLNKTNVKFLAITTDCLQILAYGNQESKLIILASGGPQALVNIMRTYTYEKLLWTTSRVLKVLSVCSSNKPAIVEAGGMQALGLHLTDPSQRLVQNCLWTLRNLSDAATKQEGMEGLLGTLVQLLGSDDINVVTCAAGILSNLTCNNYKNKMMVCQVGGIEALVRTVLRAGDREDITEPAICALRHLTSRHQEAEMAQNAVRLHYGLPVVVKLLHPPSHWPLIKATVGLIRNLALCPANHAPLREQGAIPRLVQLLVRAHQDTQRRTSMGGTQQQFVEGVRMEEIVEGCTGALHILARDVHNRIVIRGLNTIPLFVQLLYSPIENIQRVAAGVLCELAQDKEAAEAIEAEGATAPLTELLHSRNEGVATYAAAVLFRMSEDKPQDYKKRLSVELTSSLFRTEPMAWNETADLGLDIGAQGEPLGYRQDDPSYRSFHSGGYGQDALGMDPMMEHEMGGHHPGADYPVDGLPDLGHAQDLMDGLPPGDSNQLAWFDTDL
The data set can be described thus: Nano-BRET target engagement assay (HEK293 cells). The note with it: read-out: NanoBRET Abs IC50. It counts as cell-based. In general terms: BRET reads energy transfer from a luciferase to a nearby fluorophore.

Data set [1] addresses T2, beta-catenin (Homo sapiens, UniProt P35222).
T2 sequence (P35222 1-781): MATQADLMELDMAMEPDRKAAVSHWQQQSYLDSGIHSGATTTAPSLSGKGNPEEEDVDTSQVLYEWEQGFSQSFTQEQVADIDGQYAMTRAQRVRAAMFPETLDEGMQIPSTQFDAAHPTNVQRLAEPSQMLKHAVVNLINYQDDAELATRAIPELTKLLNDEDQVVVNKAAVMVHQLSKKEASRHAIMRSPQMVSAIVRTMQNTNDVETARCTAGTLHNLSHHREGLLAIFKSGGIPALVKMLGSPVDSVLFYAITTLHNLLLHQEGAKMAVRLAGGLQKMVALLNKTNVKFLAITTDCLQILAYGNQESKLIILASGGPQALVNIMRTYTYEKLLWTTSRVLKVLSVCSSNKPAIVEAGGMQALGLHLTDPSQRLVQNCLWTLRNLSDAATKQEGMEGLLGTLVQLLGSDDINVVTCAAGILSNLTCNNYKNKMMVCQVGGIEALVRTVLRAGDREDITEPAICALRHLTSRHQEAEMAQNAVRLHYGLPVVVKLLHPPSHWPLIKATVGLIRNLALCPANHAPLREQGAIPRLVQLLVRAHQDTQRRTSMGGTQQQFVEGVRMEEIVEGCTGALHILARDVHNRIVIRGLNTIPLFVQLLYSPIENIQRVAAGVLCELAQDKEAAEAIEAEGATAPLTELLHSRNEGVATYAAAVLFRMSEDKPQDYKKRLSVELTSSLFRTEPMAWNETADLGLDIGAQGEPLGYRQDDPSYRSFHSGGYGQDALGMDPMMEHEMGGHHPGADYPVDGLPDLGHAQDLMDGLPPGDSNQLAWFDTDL
The data set can be described thus: fluorescence polarization binding to beta-catenin. The settings on record: read-out: beta-Catenin FP IC50. (Fluorescence polarisation rises when a labelled molecule tumbles more slowly, as on binding a larger partner.)
Procedure: In some embodiments, an EC50 is measured by fluorescence polarization as described in the Examples.
(§1) In some embodiments, solubility, shake flask LogD, and binding to beta-catenin were assessed.

Data set [2] is described as follows: mouse plasma pharmacokinetics. It counts as in vivo. The settings on record: single intraperitoneal (IP) dose at 100 mg/kg.
Procedure: (B): Mouse plasma pharmacokinetics. […] Mouse single dose IP, 50 mg/kg.
Concentrations of agents in biological samples were measured by LC-MS/MS (Triple Quad 6500+). […] 8 uL of plasma or tissue lysate was used for LC method with mobile phase A (1% formic acid (FA, LS118-4, Fisher Scientific) in H2O) and mobile phase B (0.1% FA in ACN), 0.6 ml/min flow rate in Waters ACQUITY UPLC BEH C18 2.1*50 mm, 1.7 μm column. […] MS was conducted by electrospray ionization and multi reaction monitor scans. PK parameters such as plasma maximum concentration (Cmax), and AUC were analyzed by noncompartmental model 200 of Phoenix WinNonlin 8.3, using the linear/log trapezoidal method.
The next data set has as its system beta-catenin/TCF. It counts as cell-based. The note with it: COLO320DM cells.
The target of data set [3] is T3, beta-catenin (human, UniProt B6V8E6 146-665 (dog entry), limits assumed).
T3 sequence: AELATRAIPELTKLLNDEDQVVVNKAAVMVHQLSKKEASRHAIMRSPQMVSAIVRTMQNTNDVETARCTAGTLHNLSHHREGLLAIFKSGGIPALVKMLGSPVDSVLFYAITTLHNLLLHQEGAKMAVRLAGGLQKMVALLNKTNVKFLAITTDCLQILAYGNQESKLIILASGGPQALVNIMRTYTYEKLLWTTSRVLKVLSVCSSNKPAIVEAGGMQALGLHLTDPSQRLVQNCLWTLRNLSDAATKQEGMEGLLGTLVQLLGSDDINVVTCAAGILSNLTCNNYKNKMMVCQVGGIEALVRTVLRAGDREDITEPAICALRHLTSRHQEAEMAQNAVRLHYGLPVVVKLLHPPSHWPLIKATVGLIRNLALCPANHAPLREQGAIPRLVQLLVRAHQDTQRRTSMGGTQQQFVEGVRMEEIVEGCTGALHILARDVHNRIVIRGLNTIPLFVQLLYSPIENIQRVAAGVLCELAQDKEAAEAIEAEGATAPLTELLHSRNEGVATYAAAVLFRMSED
The data set can be described thus: cell-based or functional assay.

The target in data set [4] is beta-catenin (human). Briefly: fluorescence polarization; bin >750 nM.
Data set [5] has as its target beta-catenin (human). The data set can be described thus: cell-based or functional assay.

*1 amine or outer side, *2 acyl side, *3 side chain or, on linkers, in order; H or OH if unused. Bridges are numbered along the chain shown (N, C = ends). Primed or numbered codes have the meaning given here. [ ]: non-standard residue; d: D form. PyrS2 = (S)-3-amino-1-((pent-4-en-1-yloxy)carbonyl)pyrrolidine-3-carboxylic acid, olefin staple residue, C=CCCCOC(=O)N1CC[C@@](N[*:1])(C(=O)[*:2])C1; PyrS2(5) = (S)-3-amino-1-((pent-4-en-1-yloxy)carbonyl)pyrrolidine-3-carboxylic acid, C=CCCCOC(=O)N1CC[C@@](N[*:1])(C(=O)[*:2])C1; B5(5) = 2-amino-2-(pent-4-en-1-yl)hept-6-enoic acid (two olefin arms), C=CCCCC(CCCC=C)(N[*:1])C(=O)[*:2]; Phe(3-COOH) = N[C@@H](Cc1cccc(C(=O)O)c1)C(=O)O; 2F3MeF = Cc1cccc(C[C@H](N[*:1])C(=O)[*:2])c1F; Bta = N[C@@H](Cc1csc2ccccc12)C(=O)O; αAllylPro = C=CC[C@@]1(C(=O)O)CCCN1; tBuAla = CC(C)(C)C[C@H](N)C(=O)O; 3Thi = N[C@@H](Cc1ccsc1)C(=O)O; AsnR = not defined here; GlnR = not defined here; B5 = not defined here

Procedure for beta-catenin/TCF4: as §1
In some embodiments, capabilities of provided technologies, e.g., binding to beta-catenin and/or disrupt its interactions (or lack thereof) with various partners were assessed and confirmed in cells, e.g., using a NanoBRET based assay in HEK293 cells.

As to “Ac-PL3-Asp-Npg-B5-Asp-4F3Me2COOHF-Aib-Ala-Phe-Lys*3-PyrS2-2F3MeF-BztA-GlnR*3-Ala-NH2 [I-205]”, the IC50 at beta-catenin/TCF4 was 3000 to 10000 nM; at beta-catenin [1], less than 50 nM. With `CC(=O)N1CCC[C@]12CC=CCCCC1(CCCC=CCCCOC(=O)N3CC[C@@]4(C3)NC(=O)[C@H](CCCCNC(=O)CC[C@@H](C(=O)N[C@@H](C)C(N)=O)NC(=O)[C@H](Cc3csc5ccccc35)NC(=O)[C@H](Cc3ccsc3)NC4=O)NC(=O)[C@H](Cc3ccccc3)NC(=O)[C@H](C)NC(=O)C(C)(C)NC(=O)[C@H](Cc3cccc(C(=O)O)c3)NC(=O)[C@H](CCC(=O)O)NC1=O)NC(=O)[C@H](CC(C)(C)C)NC(=O)[C@H](CCC(=O)O)NC2=O` (relative stereo) [I-470, Ac-PL3-Glu-Npg-B5-Glu-3COOHF-Aib-Ala-Phe-Lys*3-PyrS2-3Thi-BztA-GlnR*3-Ala-NH2], in data set [2], the “plasma AUC” value is “comparable plasma AUC”. Besides, in the data set on beta-catenin/TCF, the “effect on expression level of AXIN2” value is “no or very little or non-significant effect”. Ac-[αAllylPro]D[tBuAla][B5]D[Phe(3-COOH)]AAFL[PyrS2][2F3MeF][Bta]Q-NH2 (staple 1-4, 4-11; not fully specified; reading uncertain) [Peptide A]: in the data set with beta-catenin [3], the “AXIN2 expression IC50, COLO320DM cells” value came out at 1400 nM; the “AXIN2 expression IC50, DLD1 cells” value stood at 9300 nM; the “SP5 expression IC50, DLD1 cells” value came out at 9000 nM.

B1: I-35 (peptide)
peptide: Ac-[αAllylPro]D[tBuAla][B5(5)]D[Phe(3-COOH)]AAF[AsnR][PyrS2(5)][3Thi][Bta]K-NH2
modifications: bridge 10-14; not fully specified (bridges); printed as Ac-PL3-Asp-Npg-B5-Asp-3COOHF-Ala-Ala-Phe-AsnR*3-PyrS2-3Thi-BztA-Lys*3-NH2; reading uncertain
As for B1, the IC50 in the data set with beta-catenin (human) [4] is less than 1000 nM.

B2: I-133 (peptide)
peptide: Ac-[αAllylPro]D[tBuAla][B5]D[Phe(3-COOH)][GlnR]AFL[PyrS2][2F3MeF][Bta][GlnR](39N2spiroundecane)A-NH2
modifications: staple 1-4, 4-11 (inferred); not fully specified; printed as Ac-PL3-Asp-Npg-B5-Asp-3COOHF-GlnR-Ala-Phe-Leu-PyrS2-2F3MeF-BztA-[39N2spiroundecane]GlnR-Ala-NH2; reading uncertain; also: staple C=C reduced to CH2-CH2
Turning to B2, the IC50 with beta-catenin (human) [4] is less than 1000 nM. Besides, in the data set with beta-catenin (human) [5], the NanoBRET Abs IC50 is greater than 10000 nM.

B3: I-44 (peptide)
peptide: Ac-[αAllylPro]D[tBuAla][B5(5)]D[Phe(3-COOH)]AAF[AsnR][PyrS2(5)][3Thi][Bta]KA-NH2
modifications: bridge 10-14; reading uncertain; also: PL3/B5/PyrS2 staple links not placed, printed as Ac-PL3-Asp-Npg-B5-Asp-3COOHF-Ala-Ala-Phe-AsnR*3-PyrS2-3Thi-BztA-Lys*3-Ala-NH2
As for B3, the IC50 with beta-catenin (human) [4] was less than 1000 nM.
